The values that follow come from CN113501872A (INST PATHOGEN BIOLOGY CAMS, dated 2021).

For this test, the target named is SARS-CoV-2刺突蛋白RBD区重组蛋白 (SARS-CoV-2, UniProt P0DTC2 319-541). In words: indirect ELISA, RBD protein coated, Fab supernatant. (In general: An ELISA detects its analyte on a solid surface through an enzyme-linked reagent.)

B1: 人源抗SARS-CoV-2病毒Fab抗体SK1 (Fab, V domains shown)
VH: EVQLVESGGGLVQPGRSLRLSCAASGFIFDDYAMHWVRQAPGKGLEWVSGISWNSGTIGYADSVKGRFIISRDNAKNSLYLQLNRLGVEDTALYYCVKDIYYRDRNLGFAFDIWGQGTMVTVSS
VL: DIQLTQSPSSLSASIGDTVTITCRASQSIDNYLHWYQKKPGIAPKLLISATSTLENGVPSRFSGSRSGTDFTLTISSLQIEDFATYYCQQGHSVPLTFGGGTKLEVR
notes: also called SK1 Fab
B1: the binding result is reported as “binds”.
